Laboratory results: the DeepSol protein solubility set

assay: soluble on expression in E. coli; label from the status in PepcDB or PDB records

| Sequence | soluble on expression in E. coli |
| --- | --- |
| MKTSPRRPLILKRRRLPLPVQNAPSETSEEEPKRSPAQQESNQAEASKEVAESNSCKFPAGIKIINHPTMPNTQVVAIPNNANIHSIITALTAKGKESGSSGPNKFILISCGGAPTQPPGLRPQTQTSYDAKRTEVTLETLGPKPAARDVNLPRPPGALCEQKRETCADGEAAGCTINNSLSNIQWLRKMSSDGLGSRSIKQEMEEKENCHLEQRQVKVEEPSRPSASWQNSVSERPPYSYMAMIQFAINSTERKRMTLKDIYTWIEDHFPYFKHIAKPGWKNSIRHNLSLHDMFVRETSANGKVSFWTIHPSANRYLTLDQVFKQQKRPNPELRRNMTIKTELPLGARRKMKPLLPRVSSYLVPIQFPVNQSLVLQPSVKVPLPLAASLMSSELARHSKRVRIAPKVLLAEEGIAPLSSAGPGKEEKLLFGEGFSPLLPVQTIKEEEIQPGEEMPHLARPIKVESPPLEEWPSPAPSFKEESSHSWEDSSQSPTPRPKKSYSGLRSPTRCVSEMLVIQHRERRERSRSRRKQHLLPPCVDEPELLFSEGPSTSRWAAELPFPADSSDPASQLSYSQEVGGPFKTPIKETLPISSTPSKSVLPRTPESWRLTPPAKVGGLDFSPVQTPQGASDPLPDPLGLMDLSTTPLQSAPPLESPQRLLSSEPLDLISVPFGNSSPSDIDVPKPGSPEPQVSGLAANRSLTEGLVLDTMNDSLSKILLDISFPGLDEDPLGPDNINWSQFIPELQ | soluble |
| MEKPVICRIKEIIEESPTVKTFVVDKDFDFKPGQFAMLWLPGVDEKPFGFSSKNSFSVARVGEFTKKMHELKEGDIIGVRGPYGTYFEPIGDKVLAVAGGIGAAPIITAVEEFSKQGIEITTILGARTKEELLFLDRFEKVSRLEICTDDGSFGFKGFTTEKMKEVLKEEKFDLIITCGPEIMMKKVVEIANEYNIPVQVSMERYMKCGIGICGQCCVDDEGLCVCKDGPVFWGDKLKFIREFGKYKRDASGKKIYY | not soluble |
| SSDLGSEELEEEGENDLGEYEGERNELGERHGHGKARLPNGDTYEGNYESGKRHGQGTYKFKNGARYVGDYVKNKKHGQGTFVYPDGSRYEGEWADDQRHGHGVYYYVNNDTYTGEWFNHQRHGQGTYFYAETGSKYVGTWVHGQQEGAAELIHLNHRYQGKFINKNPVGPGKYVFDVGCEQHGEYRLTDVERGEEEEEEETLVSIVPKWKALKITELALWTPTLSEEHPPAEGQGQEEVQGATGAGEPSDDIQAEGFEVDAEPRTGEEDIDFRQESQENSYDLDQGNPNFDEEQLDLQE | soluble |
| MDGNDINIQKNEFSRDQSALLMMDQHSDHKNHESAIGEPGMSYTASQPALSSTEHQTPLVSEASVAAPQNHLNGNSHESVSEMDRNSVDFAIESVLMKARAYNKMGAPKDPRRKQHNPKSEPKIEPHVTDSSDNQAAMSNKMEAEAPKMESNQNYVSNGSEPPFRFVSISNFDEMKTKKKEVQEELKLEVDSDSEEDDVPEQKTPKESDRCGGCGKFTHEDDLIALEEEKKKEKEKPLMSKKKSHHHKKNDFQWIGCDSCQTWYHFLCSGLEQFEYYLYEKFFCPKCVPHTGHSIRYKVVAPHRYRWYSPNEKHLGIEVGSKTWIEDFITRENTVPSPTDDEVCIVEDGYEFRREFEKLGGADNWGKVFMVKDMDGLNMTMPKPGFDLEDVVKIMGSDYEVDTIDVYNQSTYSMKLDTFRKLFRDTKNRPLLYNFLSLEFSDNNEMKEIAKPPRFVQEISMVNRLWPDVSGAEYIKLLQREEYLPEDQRPKVEQFCLAGMAGSYTDFHVDFGGSSVYYHILKGEKIFYIAAPTEQNFAAYQAHETSPDTTTWFGDIANGAVKRVVIKEGQTLLIPAGWIHAVLTPVDSLVFGGNFLHLGNLEMQMRVYHLENAIRKEIRSEEKFYFPNFELLHWMYMRNVLLEKITEANQEGSDMREQEKNIWTASQIMKAEMERWMDRELRLGPEKNAILPTDDKNKIMISVRKQIEIQTKIQNAKNKPMGLKQKRKSRESAERDDEDYCPSSSTAYKKKYTKKAKKDNDDAPKVKKAKKEEVPEEKVPVPEAAGPSEVTAPLTIKIGMGPTEDQKGVVQIFNNQCTSSGRKVKLNQNVADYCGSHLEARVEEIPEKATKSFRELDNELERCEAVHSGEKIKKVKEPKPPKQPKEKKEKPPPKKKEMSSRDRLMKKLKM | not soluble |
| MAHHHHHHMFSRTGFRCAPVVEDVVAAFKVLGLAYNPRAPASSRPGVDDVRRQYLEMARLHHPDLSSGDDNRMKVINTAYELIQSSGILHGAYDAPAGAREGVAGQQGGEAGTATRFARKAGARRRRMPDDFASGDDSSWSMKTSLDWQAIMNSTETLSDEEMKNPANHPFSHSKFFTFEDDLTIYRMICGGATVRQVARSLGKPATFIERRLQNAQFKLRVQYVLRQDKRKSTAASSNGAASSGSMQQTTSTTITEPATRRALRRSPYEDAHVSSTVRKREWEPSYPEWRAPRYRDQMTLEEQGRLDGLLRETPRAAHAAGKSVSSLHSARRSAASKMGRSYENYKRLRPSF | not soluble |
| MADIYPLGKTHTEELNEIIVESAKEIAEPDTTMIQKLIDEHNPEPLLKGVRYYMCENDIEKKRRTYYDAAGQQLVDDTKTNNRTSHAWHKLFVDQKTQYLVGEPVTFTSDNKTLLEYVNELADDDFDDILNETVKNMSNKGIEYWHPFVDEEGEFDYVIFPAEEMIVVYKDNTRRDILFALRYYSYKGIMGEETQKAELYTDTHVYYYEKIDGVYQMDYSYGENNPRPHMTKGGQAIGWGRVPIIPFKNNEEMVSDLKFYKDLIDNYDSITSSTMDSFSDFQQIVYVLKNYDGENPKEFTANLRYHSVIKVSGDGGVDTLRAEIPVDSAAKELERIQDELYKSAQAVDNSPETIGGGATGPALEKLYALLDLKANMAERKIRAGLRLFFWFFAEYLRNTGKGDFNPDKELTMTFTRTRIQNDSEIVQSLVQGVTGGIMSKETAVARNPFVQDPEEELARIEEEMNQYAEMQGNLLDDEGGDDDLEEDDPNAGAAESGGAGQVS | soluble |
| GSNRSLIVTTILEEPYVLFKKSDKPLYGNDRFEGYCIDLLRELSTILGFTYEIRLVEDGKYGAQDDVNGQWNGMVRELIDHKADLAVAPLAITCVREKVIDFSKPFMTLGISILYRKGTPIDSADDLAKQTKIEYGAVEDGATMTFFKKSKISTYDKMWAFMSSRRQSVLVKSNEEGIQRVLTSDYAFLMESTTIEFVTQRNCNLTQIGGLIDSKGYGVGTPMGSPYRDKITIAICQLQEEGKLHMMKEKWWRGNGCPS | soluble |
| MSLTNNLTTKASLVSSAFSPVLVVGKKKELRQPVKIKAVNWHHKKRPVELQVGNFPPERYVLSPGINNIETSIPEVTAPCELPIILKEQGKTVSKINEKATPVKKWTVYLVQHTHTDIGYTKPQTEILSEHLRYIDYAIEYCEQTKDYTNDAKFRWTCESAWAVDEYLKNRPEEQVNKLKKYIAEGQIEVASMYFNMSEIVDENSFKTFLQPVKEFRKHGIPSALAMQNDVNGIAWCLADYLPDLGIKYLWMGEHHYKSQVPFNMPTVFQWESPSGKPILTYRADHYNTGNFWGIEQGDIQKTEPKLLHYLSELERKHYPFDAVGVQYSGYFTDNSPPSIIECKLIREWNEKYAYPKLRSATASEFMDYVTERYGDKIPAYRAEGHHHHHH | soluble |
| STLQFKVGPPFELVRDYCPVVESHTGRTLDLRIIPRIDRGFDHIDEEWVGYKRNYFTLVSTFETANCDLDTFLKSSFDLLVEDSSVESRLRVQYFAIKIKAKNDDDDTEINLVQHTAKRDKGPQFCPSVCPLVPSPLPKHQIIREASNVRNITKTKKYDSTFYLHRNHVNYEEYGVDSLLFSYPEDSIQKVARYERVQFASSISVKKPFQQNKHFSLHVILGAVVDPDTFHGENPGIPYDELALKNGSKGMFVYLQEMKTPPLIIRGRSPSN | soluble |
| MAASWRLGCDPRLLRYLVGFPGRRSVGLVKGALGWSVSRGANWRWFHSTQWLRGDPIKILMPSLSPTMEEGNIVKWLKKEGEAVSAGDALCEIETDKAVVTLDASDDGILAKIVVEEGSKNIRLGSLIGLIVEEGEDWKHVEIPKDVGPPPPVSKPSEPRPSPEPQISIPVKKEHIPGTLRFRLSPAARNILEKHSLDASQGTATGPRGIFTKEDALKLVQLKQTGKITESRPTPAPTATPTAPSPLQATAGPSYPRPVIPPVSTPGQPNAVGTFTEIPASNIRRVIAKRLTESKSTVPHAYATADCDLGAVLKVRQDLVKDDIKVSVNDFIIKAAAVTLKQMPDVNVSWDGEGPKQLPFIDISVAVATDKGLLTPIIKDAAAKGIQEIADSVKALSKKARDGKLLPEEYQGGSFSISNLGMFGIDEFTAVINPPQACILAVGRFRPVLKLTEDEEGNAKLQQRQLITVTMSSDSRVVDDELATRFLKSFKANLENPIRLA | soluble |
| MGSDKIHHHHHHADSVKIGFITDMSGLYADIDGQGGLEAIKMAVADFGGKVNGKPIEVVYADHQNKADIAASKAREWMDRGGLDLLVGGTNSATALSMNQVAAEKKKVYINIGAGADTLTNEQCTPYTVHYAYDTMALAKGTGSAVVKQGGKTWFFLTADYAFGKALEKNTADVVKANGGKVLGEVRHPLSASDFSSFLLQAQSSKAQILGLANAGGDTVNAIKAAKEFGITKTMKLAALLMFINDVHALGLETTQGLVLTDSWYWNRDQASRQWAQRYFAKMKKMPSSLQAADYSSVTTYLKAVQAAGSTDSDKVMAQLKKMKIDDFYAKGYIRTDGSMIHDMYLMEVKKPSESKEPWDYYKVVATIPGEQAFTTKQETRCALWK | not soluble |
| MADEEDPCGGGKKNPRKRCQPDVDPEEDSEPDLDGPQPPFRGRSSTVTDAVRQTAMEFRKRARSDEFRPAQQPEQSVVAVKPPTTSAPVTPFPANLPVSEQLEDLSLLPGVRRVRPLPRSRYPVANDPFDKFSAYSGPGSSQQAVPRTISKISEESGSGSGSGSGNDSSGSSGPTRMSGQVPSTSGPPPPRPPPAGHQNPFLGNQPSTSNTSEPSTSTQGVSPSRTSKISKKKAHQAGLHSKGSSEDSTDSGESKPSSKQPPKKSPKSNKNDPNAPGPSRRRDDDDDGVQGGSSEGSSESL | soluble |
| MGHHHHHHSHNDGRIMGFVSRSQERRLLKKTMSGTFLLRFSESSEGGITCSWVEHQDDDKVLIYSVQPYTKEVLQSLPLTEIIRHYQLLTEENIPENPLRFLYPRIPRDEAFGCYYQEKVNLQERRKYLKHRLIVVSNRQVDELQQPLELKPEPELESLELELGLVPEPELSLDLEPLLKAGLDLGPELESVLESTLEPVIEPTLCMVS | soluble |
| MGSDKIHHHHHHMMRKYSDKKNAQTQNYYKDRFYHAPHTVKSDVNESVFKEDFEVLKTQVEILNSFVELDFWVIEIKKEDNVKTLQMLKTLGYLSFTEASAIDFIADKNGFEVFYQLLNLEKKLRVRIKTFVGVKERLQSVAHVFKGANWSEREIYDMFGIFIINHPNLKRILMPDDWFGHPLLKTYPLKGDEFARWYEIDKIFGKEYREVVGEEQRDSGFADDKDTLNFARLYHEVPKGGQKKEISFKQEYQEDEGVAFVKKVKRDEAKILEKRR | not soluble |
| QFLSGQLSIKLWFDKVGHQLIVTILGAKDLPSREDGRPRNPYVKIYFLPDRSDKNKRRTKTVKKTLEPKWNQTFIYSPVHRREFRERMLEITLWDQARVREEESEFLGEILIELETALLDDEPHWYKLQ | soluble |
| TKVKSIPLLIVPPWINKYYILDLSPHNSLIRWLVEQGITVFIISWVNPDETYANKSFYDYLNEGPREAIAVIQKQLRVKQVNTLGFCIGGTLLASLLAYNKATKDHSIRSATFLAAMIDFSDPGDIAVFIDEQQINKLEEEMKSKGYLAGKFMASSFNSLRANDLIWSFFIKNYLRGKSPVPFDILYWNADSTNMPATMHSQYLRWMYLHNNLIKPGKIRLNHIPIDVTNIDIPTFFLSTQKDHIAPWKTTYKGFELMKGPKRFVLGGSGHI | not soluble |
| MVFFTCNACGESVKKIQVEKHVSNCRNCECLSCIDCGKDFWGDDYKSHVKCISEGQKYGGKGYEAK | soluble |
